Values quoted from earlier work in PMC10299133.

Biological target: MET (Homo sapiens) (UniProt P08581)
Sequence (P08581 25-932): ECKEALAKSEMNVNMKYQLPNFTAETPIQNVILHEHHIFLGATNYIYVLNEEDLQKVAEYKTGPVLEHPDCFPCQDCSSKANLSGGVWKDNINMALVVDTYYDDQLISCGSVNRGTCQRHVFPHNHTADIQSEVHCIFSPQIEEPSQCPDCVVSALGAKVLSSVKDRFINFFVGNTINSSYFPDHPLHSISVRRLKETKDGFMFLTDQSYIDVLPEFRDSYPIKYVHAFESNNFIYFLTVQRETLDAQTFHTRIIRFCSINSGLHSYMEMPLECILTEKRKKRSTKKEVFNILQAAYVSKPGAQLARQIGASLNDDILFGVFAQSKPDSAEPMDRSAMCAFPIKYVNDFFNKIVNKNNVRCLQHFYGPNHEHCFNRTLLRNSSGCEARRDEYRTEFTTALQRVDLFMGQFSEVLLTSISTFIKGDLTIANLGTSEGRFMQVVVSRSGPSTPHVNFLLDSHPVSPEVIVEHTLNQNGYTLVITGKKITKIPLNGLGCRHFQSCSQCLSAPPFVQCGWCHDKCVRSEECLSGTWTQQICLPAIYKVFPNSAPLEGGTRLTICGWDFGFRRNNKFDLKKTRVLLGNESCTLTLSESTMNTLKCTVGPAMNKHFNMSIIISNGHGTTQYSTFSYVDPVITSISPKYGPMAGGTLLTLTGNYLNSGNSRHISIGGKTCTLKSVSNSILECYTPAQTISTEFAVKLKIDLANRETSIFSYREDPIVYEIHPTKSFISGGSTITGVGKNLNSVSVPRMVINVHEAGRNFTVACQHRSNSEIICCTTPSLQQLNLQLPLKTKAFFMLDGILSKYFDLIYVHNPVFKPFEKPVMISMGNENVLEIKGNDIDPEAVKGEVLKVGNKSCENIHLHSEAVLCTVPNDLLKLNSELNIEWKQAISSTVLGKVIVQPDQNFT

- Kd: 0.04 nM
Substance: amivantamab
